Laboratory results: PMC5694352

Experiments:
Assay in all cases: BLI
[1] = target: GlcNAc-IgG3 Fc (human IgG3 Fc with a single GlcNAc at N297) (human)
[2] = target: High mannose (Man8-Man12) glycoform of human IgG3 Fc (human)
[3] = target: Man5-IgG3 Fc (human IgG3 Fc with the GlcNAc2Man5 glycoform) (human)

Kd [1]: 506 nM
koff [1]: 0.0858 s⁻¹
kon [1]: 170000 M⁻¹ s⁻¹
Kd [2]: 41.4 nM
koff [2]: 0.0065 s⁻¹
kon [2]: 160000 M⁻¹ s⁻¹
Kd [3]: 46.5 nM
Substance: Fcγ receptor IIIA, high affinity polymorph (V158)
